Assay results from publication PMC11589570, “Critical assessment of LC3/GABARAP ligands used for degrader development and ligandability of LC3/GABARAP binding pockets” (Nature Communications, 2024).

Target: 1_(1-117) (human), Q9H0R8
Assay: FP
Conditions: modification not given

Sequence of 1_(1-117) (human), Q9H0R8 (Q9H0R8 whole entry): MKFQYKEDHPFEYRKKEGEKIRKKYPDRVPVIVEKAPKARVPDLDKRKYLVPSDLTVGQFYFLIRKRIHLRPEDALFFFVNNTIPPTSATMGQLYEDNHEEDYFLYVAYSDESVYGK

| Binder | Ki |
| --- | --- |
| SDNSSGGDDDWTHLSSK [p62-LIR] | 5.5 µM |
| AGLNSSWVELPMNSS [NIX-P2-LIR] | 3.7 µM |
| LNSGVEYYWDQLNETV [AMBRA1-LIR] | 163 µM |
